Legend:
[1] = biological target: T1, GEF-H1 peptide, amino acids 807-824 (unphosphorylated)
T1 chain: RRRSLPAGDALYLSFNPP

[2] = biological target: GST (Glutathione-S-transferase) [GST: P08515]
[3] = biological target: T2, GEF-H1 peptide, amino acids 55-72
T2 chain: RQSLLGSRRGRSSLSLAK

[4] = biological target: T3, GEF-H1 peptide 807-824 with phospho-serine at position 810
T3 chain: RRRSLPAGDALYLSFNPP

[5] = biological target: T4, GST-GEF-H1S (aa763-921)
T4 chain: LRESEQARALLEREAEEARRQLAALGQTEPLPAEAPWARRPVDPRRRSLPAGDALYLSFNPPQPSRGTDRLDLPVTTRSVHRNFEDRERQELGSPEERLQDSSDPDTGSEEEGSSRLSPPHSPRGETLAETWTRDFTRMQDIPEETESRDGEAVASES

[6] = biological target: GST-Maguin-2-like fusion protein (amino acids 385-555) [GST: P08515]
GST-Maguin-2-like fusion protein (amino acids 385-555) [GST: P08515], sequence (P08515 whole entry, looked up, the tested form may be a part): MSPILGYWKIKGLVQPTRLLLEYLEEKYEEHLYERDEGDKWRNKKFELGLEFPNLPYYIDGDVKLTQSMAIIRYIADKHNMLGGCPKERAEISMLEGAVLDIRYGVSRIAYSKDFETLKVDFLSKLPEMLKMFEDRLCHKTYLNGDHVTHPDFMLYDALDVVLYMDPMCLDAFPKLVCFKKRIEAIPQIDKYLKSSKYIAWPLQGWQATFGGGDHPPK

GST (Glutathione-S-transferase) [GST: P08515], sequence (P08515 whole entry, the tested form may be a part): as the sequence (P08515 whole entry, looked up, the tested form may be a part) above

B1: Glutathione-s-transferase (GST) fused PAK4 (residues 291-591) (protein)
chain: SPQREPQRVSHEQFRAALQLVVDPGDPRSYLDNFIKIGEGSTGIVCIATVRSSGKLVAVKKMDLRKQQRRELLFNEVVIMRDYQHENVVEMYNSYLVGDELWVVMEFLEGGALTDIVTHTRMNEEQIAAVCLAVLQALSVLHAQGVIHRDIKSDSILLTHDGRVKLSDFGFCAQVSKEVPRRKSLVGTPYWMAPELISRLPYGPEVDIWSLGIMVIEMVDGEPPYFNEPPLKAMKMIRDNLPPRLKNLHKVSPSLKGFLDRLLVRDPAQRATAAELLKHPFLAKAGPPASIVPLMRQNRTR
Km (in vitro kinase assay) [1]: also a high affinity substrate for PAK4 with a similar Km for PAK4 as the GST-GEF-H1 (793-921) fusion protein | phosphorylation in in vitro kinase assays [1]: are phosphorylated by PAK4 | phosphorylation in an in vitro kinase assay [2]: PAK4 fails to phosphorylate the GST control | phosphorylation in an in vitro kinase reaction (SDS-PAGE, autoradiograph) [2]: no phosphorylation of the fusion partner GST | phosphorylation in in vitro kinase assays [3]: are phosphorylated by PAK4 | phosphorylation in an in vitro kinase assay [4]: Peptides with phospho-serine at position 810 were no longer substrates for PAK4 | Km (in vitro kinase assay) [5]: Km is the 1 to 5 uM range | phosphorylation in an in vitro kinase reaction (SDS-PAGE, autoradiograph) [5]: The autoradiograph showed phosphorylation of the GEF-H1S polypeptide | phosphorylation in an in vitro kinase assay [6]: weakly phosphorylated the GST-Maguin-2-like fusion protein

From patent US20040091907
